{"source": "paper PMC3972757", "about": "(Biochemistry, 2013)", "binders": {"B1": {"name": "Phe320Ala mutant of the catalytic domain of AMSH (domain or fragment, human, UniProt O95630 219-424, looked up)", "chain": "SDCHTTVRPAKPPVVDRSLKPGALSNSESIPTIDGLRHVVVPGRLCPQFLQLASANTARGVETCGILCGKLMRNEFTITHVLIPKQSAGSDYCNTENEEELALIQDQQGLITLGWIHTHPTQTAFLSSVDLHTHCSYQMMLPESVAIVCSPKFQETGFFKLTDHGLEEISSCRQKGFHPHSKDPPLFCSCSHVTVVDRAVTITDLR"}}, "target": "ubiquitin (human, UniProt P0CG47 1-76)", "assay": "ITC", "data": [{"binder": "B1", "values": [{"measurement": "Kd", "result": "81 ± 15", "unit": "µM"}]}]}
